The source of these data is patent US20210171647A1 (WUXI BIOLOGICS SHANGHAI, published 2021).

Where a chain is given by its changes, count along the chain named.

Common to all, as to test: ELISA, antibody coated, OX40-ECD.His mutant supernatant; relative to silent alanine substitutions;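 note: captured OX40 mutant protein detected with HRP-labelled anti-His antibody, absorbance read-out, scaled to the mean signal of control mutants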
For orientation: An ELISA detects its analyte on a solid surface through an enzyme-linked reagent.

Assay [1] has as its target T1, human OX40-ECD.His Q103A (human, UniProt P43489 29-214).
T1 construct: extracellular domain; not shown: C-terminal His-tag
T1 sequence (looked up): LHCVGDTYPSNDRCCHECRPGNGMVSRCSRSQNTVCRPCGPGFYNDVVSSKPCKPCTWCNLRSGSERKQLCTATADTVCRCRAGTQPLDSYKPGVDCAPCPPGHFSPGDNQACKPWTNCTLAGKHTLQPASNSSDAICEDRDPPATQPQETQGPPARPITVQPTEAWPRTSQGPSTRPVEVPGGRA

In assay [2] the target is T2, human OX40-ECD.His Q97A (human, UniProt P43489 29-214).
T2 construct: extracellular domain; not shown: C-terminal His-tag
T2 sequence (looked up): T1 sequence (looked up) with Q69A, A75Q

Assay [3] addresses T3, human OX40-ECD.His P48A (human, UniProt P43489 29-214).
T3 construct: extracellular domain; not shown: C-terminal His-tag
T3 sequence (looked up): T1 sequence (looked up) with P20A, A75Q

For assay [4], the target named is T4, human OX40-ECD.His K79A (human, UniProt P43489 29-214).
T4 construct: extracellular domain; not shown: C-terminal His-tag
T4 sequence (looked up): T1 sequence (looked up) with K51A, A75Q

Assay [5] addresses T5, human OX40-ECD.His G33A (human, UniProt P43489 29-214).
T5 construct: extracellular domain; not shown: C-terminal His-tag
T5 sequence (looked up): T1 sequence (looked up) with G5A, A75Q

Assay [6] deals with T6, human OX40-ECD.His A164G (human, UniProt P43489 29-214).
T6 construct: extracellular domain; not shown: C-terminal His-tag
T6 sequence (looked up): T1 sequence (looked up) with A75Q, A136G

For assay [7], the target named is T7, human OX40-ECD.His N138A (human, UniProt P43489 29-214).
T7 construct: extracellular domain; not shown: C-terminal His-tag
T7 sequence (looked up): T1 sequence (looked up) with A75Q, N110A

Assay [8] concerns the target T8, human OX40-ECD.His T113A (human, UniProt P43489 29-214).
T8 construct: extracellular domain; not shown: C-terminal His-tag
T8 sequence (looked up): T1 sequence (looked up) with A75Q, T85A

The target in assay [9] is T9, human OX40-ECD.His D74A (human, UniProt P43489 29-214).
T9 construct: extracellular domain; not shown: C-terminal His-tag
T9 sequence (looked up): T1 sequence (looked up) with D46A, A75Q

Assay [10] deals with T10, human OX40-ECD.His D117A (human, UniProt P43489 29-214).
T10 construct: extracellular domain; not shown: C-terminal His-tag
T10 sequence (looked up): T1 sequence (looked up) with A75Q, D89A

B1: 1.134.9-u1-IgG1L (antibody, V domains shown)
VH: QVQLQESGPGLVKPSGTLSLTCAVSGGSISSYNWWSWVRQPPGKGLEWIGEIYHGGNTNYNPSLKSRVTMSVDNSKNQFSLKLSSVTAADTAVYYCARAPGDWGGSPYFDFWGQGTLVTVSS
VL: SSELTQDPAVSVALGQTVRITCQGDNLRTYYASWYQQKPGQAPILLIYGRNKRPSGIPDRFSGSSSGNTASLTITGAQAEDEAAYYCNSRDSSGNPVVFGGGTKLTVL
notes: fully human IgG1, lambda
Turning to B1, the “Fold Change” value was 0.974 in assay [1]; 0.981 in assay [2]; 0.981 in assay [3]; 0.992 in assay [4]; 1 in [5]; 0.47 in assay [6]. Also, the “Fold Change” value came to 0.73 in [7], 0.784 in assay [8], 0.796 in assay [9] and 0.951 in [10].
